Data: PMC3068679

Key:
[1] = molecular target: T1, MBP-Rv3124-His6 (MoaR1) (Mycobacterium tuberculosis (gDNA; strain H37Rv?)) (UniProt O05797); assay: EMSA
T1 sequence: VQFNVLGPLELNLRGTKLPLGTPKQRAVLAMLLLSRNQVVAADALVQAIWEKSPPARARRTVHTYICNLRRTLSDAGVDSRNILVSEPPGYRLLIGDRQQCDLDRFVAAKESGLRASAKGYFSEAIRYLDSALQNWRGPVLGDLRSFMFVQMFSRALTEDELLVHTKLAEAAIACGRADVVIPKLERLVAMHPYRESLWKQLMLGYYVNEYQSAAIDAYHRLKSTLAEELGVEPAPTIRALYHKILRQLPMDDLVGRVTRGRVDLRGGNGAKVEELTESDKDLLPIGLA

[2] = molecular target: T1, MBP-Rv3124-His6 (MoaR1) (Mycobacterium tuberculosis (gDNA; strain H37Rv?)); assay: competition

ATGGAGCTACCATATCAGGCAGCGTAGGCGTACTCATTTTCCTATCATCTTTTCGATCCTCCACTTTGGACGCAGTCGGTTAGAGCGCCTCAAGAGAGTTTCGTACAAGGGTTAACTAACAATCGTTACCGAAATGCATCGGCGCATCGTGGCGCAGCGCATGAGCCTGCGTTTATGGCGCGTTGTTAGGGCGGAATCCGACCACTCATGTGCGAGCTTTCGTT (double strand) [Rv3109pro (222 bp)]
binding [1]: binds | binding [2]: binds
